Results taken from patent publication US20130071400A1, “LINGO binding molecules and Pharmaceutical Use Thereof” (NOVARTIS AG, priority 2006, published 2013).

B1: IgG4 4784: monoclonal human anti-LINGO-1 IgG4 antibody; VL SEQ ID NO: 4, VH SEQ ID NO: 5 (antibody, V domains shown)
VH: QVQLKESGPALVKPTQTLTLTCTFSGFSLSSSGVGVGWIRQPPGKALEWLAHIGSDDDKYYSTSLKTRLTISKDTSKNQVVLTMTNMDPVDTATYYCARNQQYGDGYPGYFDYWGQGTLVTVSS
VL: DIELTQPPSVSVAPGQTARISCSGDNIGNYYVYWYQQKPGQAPVLVIYEDTNRPSGIPERFSGSNSGNTATLTISGTQAEDEADYYCQSYDNLHEQVFGGGTKLTVLG
modifications: IgG4; 4784 VH; 4784 VL
B2: IgG4 4785: monoclonal human anti-LINGO-1 IgG4 antibody; VL SEQ ID NO: 6, VH SEQ ID NO: 7 (antibody, V domains shown)
VH: QVQLQQSGPGLVKPSQTLSLTCAISGDSVSDNSAAWSWIRQSPGRGLEWLGLIYLRSKWDNDYAVSVKSRITINPDTSKNQFSLQLNSVTPEDTAVYYCARTGRADEFDVWGQGTLVTVSS
VL: DIVLTQPPSVSGAPGQRVTISCSGSSSNIGNNYVSWYQQLPGTAPKLLISRNSKRPSGVPDRFSGSKSGTSASLAITGLQSEDEADYYCSTYDTFSIVFGGGTKLTVLG
modifications: IgG4; 4785 VH; 4785 VL

System: freshly isolated rat OPCs
Assay: Primary oligodendrocyte differentiation assay
Assay type: cell-based
Details: 100 nM IgG4, 3 days in DMEM/CNTF/T3 medium; three independent experiments (FIG. 5)
Experimental: A) Freshly isolated OPCs are treated with 100 nM 4784, 4785 or control IgG4 3207 for 3 days in DMEM/CNTF/T3 medium followed by staining with the anti-04 antibody to visualise immature and mature oligodendrocytes (larger, more diffuse labeling) and the nucleic acid dye DAPI (4′,6-diamidin-2′-phenyl-indol-dihydrochloride) to visualise cell nuclei (smaller circular dots). Oligodendrocytes bearing highly arborised and extended processes and myelin sheet-like structures are considered to have a mature morphology and are indicated with white arrows. Anti-LINGO-1 antibody treatment results in an increase in the proportion of O4-positive cells with a mature morphology whereas treatment with control IgG4 3207 has no effect.
B) The proportion of total (left graph) and mature (right graph) oligodendrocytes is quantified in three independent experiments (1, 2, 3). The left bar graph depicts the percentage of DAPI-stained nuclei associated with O4-staining and the right bar graph depicts the percentage of O4-positive cells with a mature morphology (mean of triplicates+STD). […]
Enriched populations of OPCs are isolated from OFA P3 rats. […] To assess the purity of the cultures with respect to the oligodendrocyte lineage, the percentage of cells that are stained with the anti-04 antibody is quantified after 7 days of culture in SATO medium. […]

Row | Molecule | proportion of oligodendrocytes (O4-positive cells) with a mature morphology
1 | B1 | significantly increase
2 | B2 | significantly increase
